Laboratory results taken from patent US20210188980A1 (SHANGHAI EPIMAB BIOTHERAPEUTICS, published 2021).
Substitutions are numbered along the chain they refer to.

T1: recombinant human LAG-3-his protein (Novoprotein) (human, UniProt P18627 23-450)
T1 construct: Bought; also called huLAG-3; not shown: His tag
T1 sequence (looked up): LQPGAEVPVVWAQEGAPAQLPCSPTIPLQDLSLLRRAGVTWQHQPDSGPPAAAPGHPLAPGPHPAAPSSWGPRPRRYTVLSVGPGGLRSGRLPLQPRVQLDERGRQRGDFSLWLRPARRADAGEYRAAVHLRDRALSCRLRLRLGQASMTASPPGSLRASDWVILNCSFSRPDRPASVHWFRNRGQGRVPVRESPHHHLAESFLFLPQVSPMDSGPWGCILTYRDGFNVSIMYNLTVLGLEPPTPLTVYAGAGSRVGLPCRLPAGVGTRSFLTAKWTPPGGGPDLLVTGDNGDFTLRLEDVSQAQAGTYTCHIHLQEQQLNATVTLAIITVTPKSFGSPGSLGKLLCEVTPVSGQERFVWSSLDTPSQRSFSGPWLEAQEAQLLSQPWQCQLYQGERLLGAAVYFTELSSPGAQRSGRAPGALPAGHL

B1: mAb719c (antibody, V domains shown)
VH: EVKLVESGGGLVKPGGSLKLSCTASGFSFSSHLMSWVRQTPEKRLEWVAAISGGGADTYYPDSVKGRFTISRDNAKNTLYLQMRSLRSEDTALYYCTRQILAFDSWGQGTTLTVSS
VL: DIQMNQSPSSLSVSLGDTITITCHASQNIYVWLNWYQQKPGNIPKLLIYKASNLHTGVPSRFSGGGSGTGFTLTISSLQPEDIATYYCQQGQSYPWTFGGGTKLEIK
B2: HumAb747-46 (antibody, human IgG1, V domains shown)
VH: EVQLVQSGAEVKKPGATVKLSCTASDFNIKDDYMHWVKQAPGKGLEWIGWIVPENGNTEYASKFQGRATITADTSTNTAYLELSSLRSEDTAVYYCTVYGDYWGQGTTVTVSS
VL: DIQMTQSPSSLSASVGDRVTITCRASQEISGYLSWLQQKPGKAIKSLIYAASTLDSGVPSRFSGSRSGTDFTLTISSLQPEDFATYYCLQYASYPLTFGQGTKLEIK
notes: humanized mAb747; human IgG1/kappa constant domains
B3: HumAb747-48 (antibody, human IgG1, V domains shown)
VH: B2 VH with T23K, K38Q, A68V, N77D
VL: B2 VL with S46R
notes: as for B2
B4: HumAb747-47 (antibody, human IgG1, V domains shown)
VH: B2 VH with L20I, T23K, A24V, K38Q, A68V, N77D
VL: B2 VL with S46R
notes: as for B2
B5: HumAb747-44 (antibody, human IgG1, V domains shown)
VH: B2 VH with T23K, K38Q, A68V, N77D
VL: B2 VL
notes: as for B2
B6: HumAb747-45 (antibody, human IgG1, V domains shown)
VH: B2 VH with K38Q, A68V, N77D
VL: B2 VL
notes: as for B2
B7: HumAb747-43 (antibody, human IgG1, V domains shown)
VH: B2 VH with L20I, T23K, A24V, K38Q, A68V, N77D
VL: B2 VL
notes: as for B2
B8: HumAb747-54 (antibody, human IgG1, V domains shown)
VH: B2 VH
VL: B2 VL with K42G, S46R, T69S, F71Y, T85D, I106L
notes: as for B2
B9: HumAb747-51 (antibody, human IgG1, V domains shown)
VH: B2 VH with L20I, T23K, A24V, K38Q, A68V, N77D
VL: B2 VL with K42G, S46R, T69S, F71Y, T85D, I106L
notes: as for B2
B10: HumAb747-49 (antibody, human IgG1, V domains shown)
VH: B2 VH with K38Q, A68V, N77D
VL: B2 VL with S46R
notes: as for B2
B11: HumAb747-50 (antibody, human IgG1, V domains shown)
VH: B2 VH
VL: B2 VL with S46R
notes: as for B2
B12: HumAb747-52 (antibody, human IgG1, V domains shown)
VH: B2 VH with T23K, K38Q, A68V, N77D
VL: B2 VL with K42G, S46R, T69S, F71Y, T85D, I106L
notes: as for B2
B13: HumAb747-53 (antibody, human IgG1, V domains shown)
VH: B2 VH with K38Q, A68V, N77D
VL: B2 VL with K42G, S46R, T69S, F71Y, T85D, I106L
notes: as for B2
B14: B3-21-IgG (antibody, V domains shown)
VH: EVQLVQSGAEVKKPGASVKVSCKASDFNIKDDYMHWVRQAPGQGLEWIGWIVPENGNTEYASKFQGRVTITADTSINTAYMELSRLRSDDTAVYYCTVYGDVWGQGTTVTVSS
VL: DIQMTQSPSSLSASVGDRVTINCRAMQEISGYLSWLQQKPEGTIKRLIYAASTLDSGVPSRFSGSRSGSDYTLTISSLQPEDFATYYCLQYAYYPLTFGGGTKVEIK
notes: human IgG1/kappa constant domains
B15: B2-53-IgG (antibody, V domains shown)
VH: B14 VH with D26G, E59V, V102Y
VL: B14 VL with M26S, T53A, Y93S
notes: human IgG1/kappa constant domains; also called B82-53
B16: B3-69-IgG (antibody, V domains shown)
VH: B14 VH with D26G, E59H, V102Y
VL: B14 VL with M26S, A50E, Y93S
notes: as for B14
B17: B3-48-IgG (antibody, V domains shown)
VH: B14 VH with N28S, N57K, V102Y
VL: B14 VL with M26S, S52M, Y93S
notes: as for B14
B18: B3-46-IgG (antibody, V domains shown)
VH: B14 VH with D26G, N57L, V102Y
VL: B14 VL with M26S, A51T, Y93S
notes: as for B14
B19: B3-43-IgG (antibody, V domains shown)
VH: B14 VH with D26G, R38C, V102Y
VL: B14 VL with M26S, T53H, Y93S
notes: as for B14
B20: HumAb747V-66 (antibody, human IgG1, V domains shown)
VH: B2 VH with D26G, A40R, G42E, K43Q, E46D, E59V, R67K
VL: B2 VL with K42G, S46R, S56L, T69S, F71Y, T85D, I106L
notes: engineered HumAb747-60 variant; human IgG1/kappa constant domains
B21: HumAb747V-64 (antibody, human IgG1, V domains shown)
VH: B2 VH with D26G, A40R, G42E, K43Q, E46D, E54R, E59M, R67K
VL: B2 VL with K42G, S46R, T53A, S56L, T69S, F71Y, T85D, I106L
notes: as for B20
B22: HumAb747V-65 (antibody, human IgG1, V domains shown)
VH: B2 VH with D26G, A40R, G42E, K43Q, E46D, E54R, E59M, R67K
VL: B2 VL with K42G, S46R, T69S, F71Y, T85D, I106L
notes: as for B20
B23: HumAb747V-62 (antibody, human IgG1, V domains shown)
VH: B2 VH with D26G, A40R, G42E, K43Q, E46D, E54R, E59M, R67K
VL: B2 VL with K42G, S46R, S56L, T69S, F71Y, T85D, I106L
notes: as for B20
B24: HumAb747V-63 (antibody, human IgG1, V domains shown)
VH: B2 VH with D26G, A40R, G42E, K43Q, E46D, E54R, E59M, R67K
VL: B2 VL with K42G, S46R, T53A, T69S, F71Y, T85D, I106L
notes: as for B20
B25: HumAb747V-61 (antibody, human IgG1, V domains shown)
VH: B2 VH with A40R, G42E, K43Q, E46D, G56A, R67K
VL: B2 VL with K42G, S46R, T69S, F71Y, T85D, I106L
notes: as for B14

The binders below were run against T2, human PD-1 ECD/Fc fusion protein (human) (assay: BLI Octet, immobilized huPD-1-Fc, Ab analyte).
T2 construct: also called huPD-1/Fc; HuPD-1 ECD/Fc
T2 sequence (chain, as listed by the source limits assumed): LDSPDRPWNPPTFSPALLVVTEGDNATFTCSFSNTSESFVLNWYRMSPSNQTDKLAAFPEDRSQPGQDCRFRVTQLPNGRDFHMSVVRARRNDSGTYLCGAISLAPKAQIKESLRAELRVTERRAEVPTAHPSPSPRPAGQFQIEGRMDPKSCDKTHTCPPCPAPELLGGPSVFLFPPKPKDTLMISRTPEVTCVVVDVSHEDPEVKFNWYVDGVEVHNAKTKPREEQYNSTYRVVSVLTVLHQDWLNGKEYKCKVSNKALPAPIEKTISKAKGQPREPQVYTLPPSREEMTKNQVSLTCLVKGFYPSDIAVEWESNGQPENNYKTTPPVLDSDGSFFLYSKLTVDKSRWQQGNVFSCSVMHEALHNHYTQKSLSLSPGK
Excerpt: All 21 humanized antibodies and the chimeric antibody (mAb719c) were characterized by binding ELISA and affinity determination using Octet® RED96 biolayer interferometry system (Pall FortéBio LLG), using a biosensor having immobilized human PD-Fc as the antibody target. Rate constants were derived by making kinetic binding measurements at five different concentrations of antibody.

Binder | Kd [nM] | koff [s⁻¹] | kon [M⁻¹ s⁻¹]
B1 | < 0.103 | < 1e-05 | 97400

Each binder was assayed against T1, recombinant human LAG-3-his protein … (assay: BLI Octet, Ab on AHC sensor, huLAG-3-his; test group 1).
Experimental: (§1) All 18 humanized antibodies (Table 34) and a chimeric antibody having the parental murine VH and VL domains (mAb747c) were ranked by dissociation rate constant (koff). Briefly, antibodies were characterized for affinities and binding kinetics by Octet®RED96 biolayer interferometry (Pall ForteBio LLC). Antibodies were captured by Anti-hIgG Fc Capture (AHC) Biosensors (Pall) at a concentration of 100 nM for 30 seconds. Sensors were then dipped into running buffer (1× pH7.2 PBS, 0.05% Tween 20, 0.1% BSA) for 60 seconds to check baseline. Binding was measured by dipping sensors into a single concentration of recombinant human LAG-3-his protein (Novoprotein). Dissociation was followed by dipping sensors into running buffer for 1200 seconds. The association and dissociation curves were fitted to a 1:1 Langmuir binding model using FortéBio Data Analysis software (Pall). In each test group, the off-rates of antibodies were able to be compared with that of mAb747c. The off-rate ratios were calculated by the off-rate of antibody to that of mAb747c of its group and were compared all together. The lower the ratio was, the higher was the affinity of the antibody.

Binder | koff [s⁻¹] | off-rate ratio to that of mAb747c [%]
B2 | 0.0109 | 801
B3 | 0.00803 | 592
B4 | 0.0144 | 1060
B5 | 0.011 | 809
B6 | 0.0108 | 797
B7 | 0.00925 | 682

The binders below were run against T1, recombinant human LAG-3-his protein … (assay: BLI Octet, Ab on AHC sensor, huLAG-3-his; test group 2).
Experimental: as §1

Binder | koff [s⁻¹] | off-rate ratio to that of mAb747c [%]
B8 | 0.00423 | 314
B9 | 0.0119 | 888
B10 | 0.00773 | 575
B11 | 0.00719 | 534
B12 | 0.00436 | 324
B13 | 0.0043 | 319

Target: T1, recombinant human LAG-3-his protein …
Assay: BLI Octet, Ab on AHC sensor, huLAG-3-his; test group 1
Remark: another data set of the same source
Experimental: as §1, with “9” for “18”, “25)” for “34)”, “Octet RED96” for “Octet®RED96”, “FortéBio” for “ForteBio”, “Anti-HIgG” for “Anti-hIgG”, “(Pall).” for “(Pall). In each test group, the off-rates of antibodies were able to be compared with that of mAb747c. The off-rate ratios were calculated by the off-rate of antibody to that of mAb747c of its group and were compared all together. The lower the ratio was, the higher was the affinity of the antibody.”
The seven Fab clones were converted to full IgG proteins. Briefly, the VH and VL genes were produced synthetically and then cloned into vectors containing coding sequences for the human IgG1 and human kappa constant domains, respectively. The heavy chain and cognate light chain plasmids were co-transfected into HEK 293E cells, individually. After approximately six days of post-transfection cell culture, the supernatants were harvested and subjected to Protein A affinity chromatography. The affinity of purified antibodies was ranked by Octet® RED96 biolayer interferometry (see, Example 9.1, supra).

Binder | koff [s⁻¹] | off-rate ratio to that of mAb747c [%]
B14 | 0.00198 | 132
B15 | 0.0018 | 120
B16 | 0.00359 | 239
B17 | 0.00285 | 190
B18 | 0.00248 | 165
B19 | 0.00588 | 392

Target: T1, recombinant human LAG-3-his protein …
Assay: as above
Remark: another data set of the same source
Experimental: as §1, with “9” for “18”, “25)” for “34)”, “Octet RED96” for “Octet®RED96”, “FortéBio” for “ForteBio”, “Anti-HIgG” for “Anti-hIgG”, “(Pall).” for “(Pall). In each test group, the off-rates of antibodies were able to be compared with that of mAb747c. The off-rate ratios were calculated by the off-rate of antibody to that of mAb747c of its group and were compared all together. The lower the ratio was, the higher was the affinity of the antibody.”
All 13 humanized antibodies (Table 39) and chimeric anti-LAG-3 antibody mAb747c having the parental murine VH and VL domains were ranked by dissociation rate constant (koff) in the same manner described in Example 9.1 supra. In each test group, the off-rates of antibodies were able to be compared with that of mAb747c. The off-rate ratios were calculated by the off-rate of antibody to that of mAb747c of its group and were compared all together. The lower the ratio was, the higher was the affinity of the antibody.

Binder | koff [s⁻¹] | off-rate ratio to that of mAb747c [%]
B20 | 0.000584 | 95
B21 | 0.00045 | 73
B22 | 0.000292 | 47
B23 | 0.00048 | 78
B24 | 0.000522 | 85
B25 | 0.000686 | 112
